# Data published in US20140329761A1, “PREVENTION AND TREATMENT OF ACUTE INFLAMMATORY CONDITIONS” (The University of Queensland, priority 2011, published 2014).
# Where no end group is shown, it is not given here. [ ]: non-standard residue; d: D form. Cha = N[C@@H](CC1CCCCC1)C(=O)O
# How the values were obtained:
# C3aR [1] = target: T1, C3aR (Homo sapiens, UniProt Q16581); conditions: cited from earlier work
# T1 sequence (Q16581 1-482): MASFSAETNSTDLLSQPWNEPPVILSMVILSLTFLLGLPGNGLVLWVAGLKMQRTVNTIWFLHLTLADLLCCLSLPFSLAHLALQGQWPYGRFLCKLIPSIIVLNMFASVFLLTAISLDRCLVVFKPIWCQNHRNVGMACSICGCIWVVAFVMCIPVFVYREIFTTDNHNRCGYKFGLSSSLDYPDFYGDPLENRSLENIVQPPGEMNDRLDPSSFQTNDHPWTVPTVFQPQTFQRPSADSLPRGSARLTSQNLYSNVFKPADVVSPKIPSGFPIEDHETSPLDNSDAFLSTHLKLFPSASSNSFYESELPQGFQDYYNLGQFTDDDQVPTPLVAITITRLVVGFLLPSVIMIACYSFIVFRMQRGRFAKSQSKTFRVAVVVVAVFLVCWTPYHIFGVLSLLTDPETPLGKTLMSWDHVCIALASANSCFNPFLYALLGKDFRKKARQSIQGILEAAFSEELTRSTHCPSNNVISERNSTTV
# C3aR [2] = target: T2, C3aR (Mus musculus, UniProt O09047); assay: Mouse intestinal I/R injury: plasma cytokines (Cytometric Bead Array); format: in vivo; conditions: WT ischemia/reperfusion mice, 2.5 hours after ischemia
# T2 construct: endogenous in cells; host or cells: live wild-type C57BL/6 mice (in vivo; receptor on neutrophils and other bone-marrow-derived cells)
# T2 sequence (O09047 1-477): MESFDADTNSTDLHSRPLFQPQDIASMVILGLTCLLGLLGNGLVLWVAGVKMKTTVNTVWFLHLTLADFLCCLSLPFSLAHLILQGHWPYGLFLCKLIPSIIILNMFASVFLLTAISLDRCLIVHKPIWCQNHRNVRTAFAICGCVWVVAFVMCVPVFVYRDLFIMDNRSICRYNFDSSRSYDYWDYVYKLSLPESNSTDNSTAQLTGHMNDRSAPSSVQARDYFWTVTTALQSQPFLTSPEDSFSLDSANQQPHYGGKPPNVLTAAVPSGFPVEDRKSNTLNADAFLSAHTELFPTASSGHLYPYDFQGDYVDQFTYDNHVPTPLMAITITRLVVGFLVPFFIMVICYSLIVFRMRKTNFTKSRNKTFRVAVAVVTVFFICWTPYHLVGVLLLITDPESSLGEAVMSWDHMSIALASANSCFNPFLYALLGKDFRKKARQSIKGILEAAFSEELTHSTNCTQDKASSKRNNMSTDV
# Protocol: (§1) Male C57BL/6 or C3aR knockout mice were fasted for around 12 hours before experimentation. Mice were anesthetized with 2% isoflurane and oxygen at 2 L/minute throughout the experiment. […] An immediate check of complete shut-off of the blood supply to the small intestine was confirmed visually (ischemia). The abdomen was then covered with moist gauze. After thirty minutes of the ischemia episode, the ligature was removed and restoration of blood supply to the intestine was confirmed visually (reperfusion). The midline laparotomy incision was then closed. Mice were administrated with saline (100 μL) intraperitoneally every hour to compensate for fluid loss. The same procedure was performed on sham-operated mice including a loop of ligature around their arteries; however the arteries were not occluded. After two and half hours of the reperfusion episode, mice were sacrificed, and tissues and blood were harvested. Their small intestines (0.5-1 cm pieces) were snap-frozen in liquid nitrogen and stored at −80° C. for later assays. […] The blood was centrifuge at 14,000 rpm for 15 min at 4° C., and the resulting plasma stored at −80° C. […]
# Cytokines were measured using a Cytometric Bead Array from Becton Dickinson (flow cytometry that allows for the quantification of multiple cytokines simultaneously), using plasma isolated from mice at termination.
# C3aR [3] = target: T2, C3aR; assay: Mouse intestinal I/R injury: histopathology of small intestine; format: in vivo; conditions: WT mice, 0.01 mg/kg i.v. pre-treatment, compared with vehicle pre-treated WT mice; scale 0-5
# Protocol: (§2) Male C57BL/6 or C3aR knockout mice were fasted for around 12 hours before experimentation. Mice were anesthetized with 2% isoflurane and oxygen at 2 L/minute throughout the experiment. […] An immediate check of complete shut-off of the blood supply to the small intestine was confirmed visually (ischemia). The abdomen was then covered with moist gauze. After thirty minutes of the ischemia episode, the ligature was removed and restoration of blood supply to the intestine was confirmed visually (reperfusion). The midline laparotomy incision was then closed. Mice were administrated with saline (100 μL) intraperitoneally every hour to compensate for fluid loss. The same procedure was performed on sham-operated mice including a loop of ligature around their arteries; however the arteries were not occluded. After two and half hours of the reperfusion episode, mice were sacrificed, and tissues and blood were harvested. Their small intestines (0.5-1 cm pieces) were snap-frozen in liquid nitrogen and stored at −80° C. for later assays. […]
# At sacrifice, a section of ileum (0.5 cm) was removed and fixed in 4% paraformaldehyde in phosphate buffered saline (PBS) for at least 72 hours. […] Histological assessment was carried out in a blinded fashion using light microscopy at 40× magnification, and scored for severity on a scale of 0-5. […]
# C3aR [4] = target: T2, C3aR; assay: Mouse intestinal I/R injury: circulating neutrophils (white blood cell differentials); format: in vivo, mice; conditions: WT mice, I/R induced intestinal injury, 0.01 mg/kg i.v. 10 minutes prior to ischemia, compared with vehicle pre-treated WT mice
# Protocol: as §2
# (§3) To determine white blood cell populations, cell differentials were employed using blood smears and The Kwik-Diff Staining System (Thermo Shandon). […] Samples were counted in triplicate, with a total 100 white blood cells per slide counted, and the number of neutrophils expressed as a percentage of total white blood cells.
# C3aR [5] = assay: as above; format: in vivo, mice; conditions: C3aR-/- mice, gut ischemia/reperfusion, 0.01 mg/kg i.v. 10 minutes prior to ischemia
# Protocol: as §2, §3
# C3aR [6] = target: T2, C3aR; assay: Mouse intestinal I/R injury: myeloperoxidase (MPO) activity of small intestine; format: in vivo; conditions: WT mice, 0.01 mg/kg i.v. pre-treatment, compared with vehicle pre-treated WT mice
# Protocol: as §1
# Snap-frozen ileum (1 cm), excised at sacrifice, was briefly cleaned with ice-cold PBS and weighed. […] MPO activity was assayed spectrophotometrically at the absorbance 460 nm. […] The absorbance was measured using a Rainbow 96-well plate reader after 20 minutes.
# C3aR [7] = target: T2, C3aR; assay: Mouse intestinal I/R injury: alkaline phosphatase (ALP) measurement; format: in vivo; conditions: WT mice, I/R induced intestinal injury, 0.01 mg/kg i.v. pre-treatment, compared with vehicle pre-treated WT mice
# Protocol: as §2
# Intestinal ALP concentrations were measured according to the manufacturer's instructions (ALP reagents; Thermo Scientific, USA). […] The absorbance at 405 was immediately measured in a kinetic manner for 10 minutes at 37° C. The results were calculated as follows: Activity in U/L=ΔAbs/min×Factor.
# C3aR [8] = target: T2, C3aR; assay: Mouse spinal cord injury (SCI): circulating white blood cell populations and total WBC counts; format: in vivo; conditions: SCI mice, 4 doses of 1 mg/kg s.c. every 6 hours, 24 hours post-injury
# Protocol: Experimental mice were anaesthetized using Zoletil (50 mg/kg) and xylazine (10 mg/kg). Next, a dorsal laminectomy was performed on the 9th thoracic vertebra to expose the underlying spinal cord. Mice were then subjected to a force-controlled, moderate-severe (70 kdyne) contusion injury of the spinal cord using the Infinite Horizon impactor device (Ghasemlou et al., 2005). Post-operatively, mice were given antibiotics for 5 days (Gentamycin; 1 mg/kg) as well as a single dose of Hartmann's solution (1 ml) to prevent dehydration and to compensate for loss of bodily fluids. Bladders of spinal cord-injured mice were voided manually twice daily. […]
# Blood samples were collected from experimental animals either via retro-orbital eye bleeds or heart punctures at the time of sacrifice. […] Next, the number of white blood cells per set sample volume was determined using the Countess automated cell counter (Invitrogen) as per manufacturer's instructions. […]
# These experiments were performed to test whether C3aR can be used as a therapeutic target to improve the outcome from neurotraumatic events (neuronal death and axonal degeneration at sites of SCI are inevitably linked to neuroinflammation). […] The effect of EP67 treatment on circulating white blood cell populations after SCI relative to saline-treated controls was assessed via flow cytometry and total WBC counts as detailed above.
substance,measurement,setting,value
FLTChaAR (FLT[Cha]AR),functional antagonism at C3aR,"C3aR [1]; literature (Scully et al. 2010), human C3aR",functional antagonist of both C3a and the short peptide agonist FWTLAR
WWGKKYRASKLGLAR (A synthetic EP141),C3aR agonist activity,C3aR [1]; literature (Ember et al. 1991; Scully et al. 2010; Denonne et al. 2007),highly potent and selective C3aR agonist
same,IL-6 levels in plasma,C3aR [2],no significant change
same,I/R induced intestinal injury (histopathological scores of the small intestine),C3aR [3],significantly reduced
same,percentage of circulating neutrophils,C3aR [4],significantly (P<0.02) lower
same,effect on circulating neutrophils (neutrophil mobilization) in C3aR knockout mice,C3aR [5],inactive
same,I/R induced MPO activity of the small intestine,C3aR [6],significantly (P<0.05) lower
same,plasma ALP levels,C3aR [7],significantly (P<0.02) reduced
YSFKDMP(MeL)aR [EP67],reduction in the blood granulocyte number,C3aR [8]; compared to vehicle-treated control mice with SCI,30%
same,total WBC count,"C3aR [8]; relative to vehicle-treated controls, p=0.07, data not shown",trend towards a decrease
